# Data as given in patent publication US9266923B2, “Compositions and methods for treatment of thrombosis and for prolonging survival of stored platelets” (priority 2010, dated 2016).
# What was measured:
# [1] = biological target: T1, mouse platelet GPIbα (Mus musculus, UniProt O35930); experiment: In vivo activity in wild-type mice
# T1 construct: endogenous in cells; host or cells: platelets of wild-type mice (in vivo)
# T1 sequence (O35930 17-734): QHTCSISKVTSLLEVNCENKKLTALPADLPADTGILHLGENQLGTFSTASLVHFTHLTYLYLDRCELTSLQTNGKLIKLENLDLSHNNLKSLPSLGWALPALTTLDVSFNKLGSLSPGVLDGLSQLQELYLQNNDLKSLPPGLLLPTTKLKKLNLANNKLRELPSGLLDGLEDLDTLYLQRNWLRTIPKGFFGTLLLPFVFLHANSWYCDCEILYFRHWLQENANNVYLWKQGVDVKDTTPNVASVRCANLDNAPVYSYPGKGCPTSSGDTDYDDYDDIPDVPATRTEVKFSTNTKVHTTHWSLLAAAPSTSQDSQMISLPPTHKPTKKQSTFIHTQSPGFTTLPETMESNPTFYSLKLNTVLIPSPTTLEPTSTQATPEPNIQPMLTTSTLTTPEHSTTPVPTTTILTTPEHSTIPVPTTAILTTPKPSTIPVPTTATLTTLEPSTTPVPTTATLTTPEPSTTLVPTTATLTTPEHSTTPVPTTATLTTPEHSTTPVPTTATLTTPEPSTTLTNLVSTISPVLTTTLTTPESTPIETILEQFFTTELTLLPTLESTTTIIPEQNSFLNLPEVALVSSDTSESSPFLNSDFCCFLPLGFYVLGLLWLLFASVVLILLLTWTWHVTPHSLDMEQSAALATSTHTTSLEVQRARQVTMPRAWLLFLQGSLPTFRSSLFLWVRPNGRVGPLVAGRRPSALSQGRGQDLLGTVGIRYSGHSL
# T1 sequence (P56400 27-206 partner): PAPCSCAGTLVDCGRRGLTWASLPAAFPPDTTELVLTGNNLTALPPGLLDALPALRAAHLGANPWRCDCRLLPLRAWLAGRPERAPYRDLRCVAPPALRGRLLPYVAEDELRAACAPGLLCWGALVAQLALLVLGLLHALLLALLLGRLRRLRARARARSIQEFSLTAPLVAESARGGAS
# T1 sequence (O88186 17-177 partner): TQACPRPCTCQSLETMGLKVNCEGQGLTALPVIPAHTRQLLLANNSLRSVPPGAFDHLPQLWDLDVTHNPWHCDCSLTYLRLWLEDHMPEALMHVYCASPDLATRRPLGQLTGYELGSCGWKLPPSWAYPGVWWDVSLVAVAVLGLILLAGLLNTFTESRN
# Excerpt: (§1) CCP-014 extended tail bleeding time, as measured in Ware et al., Id.
# [2] = biological target: T2, human GPIbα (Homo sapiens, UniProt P07359); experiment: In vivo anti-thrombotic activity, tail bleeding time in transgenic mice expressing human GPIbα; set-up: species or system transgenic mouse
# T2 construct: mice expressing human GPIbα; expressed in transfected cells; host or cells: platelets of transgenic mice (Ware et al., PNAS 97:2803-08 (2000))
# T2 sequence (P07359 17-652, one chain of several): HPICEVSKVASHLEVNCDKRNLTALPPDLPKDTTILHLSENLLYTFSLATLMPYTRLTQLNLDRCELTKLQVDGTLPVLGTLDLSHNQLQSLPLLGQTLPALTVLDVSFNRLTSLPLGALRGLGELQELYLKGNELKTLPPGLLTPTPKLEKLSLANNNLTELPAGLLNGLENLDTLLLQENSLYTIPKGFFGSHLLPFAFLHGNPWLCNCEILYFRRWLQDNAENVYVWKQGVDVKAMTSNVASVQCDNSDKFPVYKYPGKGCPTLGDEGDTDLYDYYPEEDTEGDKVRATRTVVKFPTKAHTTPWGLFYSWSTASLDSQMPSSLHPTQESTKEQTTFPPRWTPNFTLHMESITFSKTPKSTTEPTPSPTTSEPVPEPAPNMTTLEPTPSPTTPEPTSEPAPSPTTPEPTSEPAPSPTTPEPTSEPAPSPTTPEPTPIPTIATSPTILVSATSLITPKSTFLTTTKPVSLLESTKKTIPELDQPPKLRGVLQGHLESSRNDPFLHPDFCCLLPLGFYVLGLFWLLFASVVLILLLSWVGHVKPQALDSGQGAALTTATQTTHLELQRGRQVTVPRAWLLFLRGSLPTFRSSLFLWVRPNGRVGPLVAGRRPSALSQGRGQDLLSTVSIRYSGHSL
# Excerpt: as §1
substance,measurement,setting,value
Ac-A C T E R M A L H N L C G G-NH2 (SEQ ID NO: 1) or Ac-A C T E R M A L H N L C G G K-NH2 (SEQ ID NO: 2) (Ac-ACTERMALHNLCGGK-NH2; cysteine pairing not given here) [CCP-014],activity in vivo,[1],not active
same,tail bleeding time,"[2]; mice expressing human GPIbα, measured as in Ware et al.",extended
same,activity in vivo,[2]; transgenic mice in which human GPIbα replaces the mouse platelet GPIbα,active
